For the assay, the target named is C144 (human). The assay can be described thus: BLI. For orientation: BLI is a label-free optical method that tracks binding on a fibre tip over time.

As a reminder, the Kd is the equilibrium constant for the complex coming apart. A high value points to lower affinity. In the case of “SARS-CoV-2 receptor binding domain (RBD) (from UniProt P0DTC2 319-539) (domain or fragment)”, the Kd is 149 nM.
